Source: article PMC11542177, “Recurrent Neurodevelopmentally Associated Variants of the Pre-mRNA Splicing Factor U2AF2 Alter RNA Binding Affinities and Interactions”

Assays:
Experiment in all cases: fluorescence anisotropy; Fluorescence anisotropy: 25 nM RNA, 100 mM NaCl, 25 mM HEPES pH 6.8, 0.2 mM TCEP; temperature not stated; three replicates
Settings in all cases: protein: recombinant; label: 5'-fluorescein; single strand
U2AF2 12L WT = U2AF2 12L WT (UniProt P26368 141-342)
U2AF2 12L Arg150Cys = U2AF2 12L Arg150Cys (UniProt P26368 141-342, R150C)
Sequence of U2AF2 12L Arg150Cys (P26368 141-342 R150C): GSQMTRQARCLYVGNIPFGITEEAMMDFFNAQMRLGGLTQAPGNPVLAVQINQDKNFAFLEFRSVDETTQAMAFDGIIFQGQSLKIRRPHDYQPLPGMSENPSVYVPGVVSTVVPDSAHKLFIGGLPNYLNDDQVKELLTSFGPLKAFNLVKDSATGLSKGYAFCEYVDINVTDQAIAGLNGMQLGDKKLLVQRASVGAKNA

U2AF2 12L Arg149Trp = U2AF2 12L Arg149Trp (UniProt P26368 141-342, R149W)
Sequence of U2AF2 12L Arg149Trp (P26368 141-342 R149W): as the sequence (P26368 141-342 R150C) above, with R9W, C10R counted along it

U2AF2 12L Arg150His = U2AF2 12L Arg150His (UniProt P26368 141-342, R150H)
Sequence of U2AF2 12L Arg150His (P26368 141-342 R150H): as the sequence (P26368 141-342 R150C) above, with C10H counted along it

Sequence of U2AF2 12L WT (P26368 141-342): as the sequence (P26368 141-342 R150C) above, with C10R counted along it

## UUUUUUUUU (ssRNA) [nine-uridine consensus Py tract RNA]
U2AF2 12L WT
  binding result: binds
U2AF2 12L Arg150Cys
  binding signal: ~5 fold decrease in affinity vs WT
U2AF2 12L Arg149Trp
  binding signal: ~3 fold decrease in affinity vs WT
U2AF2 12L Arg150His
  binding signal: ~4 fold decrease in affinity vs WT
